Assay [1] deals with T1, human 4-1BB on cells (human, UniProt Q07011 24-255).
T1 construct: whole, on cells; Stably transfected CHO cells (flow cytometry) and bought Jurkat reporter cells (bioassay); also called Flp-In-CHO::hu4-1BB; human 4-1BB-expressing CHO cells
In words: flow cytometry on CHO cells stably transfected with human 4-1BB, anti-NGAL detection, GeoMean BL1-H. Here is the method: (§1) 5×10⁴ cells per well were incubated for 1 h in ice-cold PBS containing 5% fetal calf serum (PBS-FCS). A dilution series of the tested multimeric proteins (SEQ ID NOs: 38-44 and 46-55), the 4-1BB-targeting lipocalin mutein as included in the multimeric proteins (SEQ ID NO: 64) or the GPC3-targeting lipocalin SEQ ID NO: 90 were added to the cells and incubated for 1 h on ice. Cells were washed twice with PBS and then incubated with a rabbit anti-NGAL or a goat anti-human IgG labeled with fluorescent dye Alexa 488 for 30 min on ice. Human IgG4 isotype (SEQ ID NOs: 29 and 30) and lipocalin mutein SEQ ID NO: 8 were tested as a negative control. Cells were subsequently washed and analyzed using iQue Flow cytometer (Intellicyte Screener). Mean geometric fluorescent signals were plotted and fitted with Graphpad software using nonlinear regression (shared bottom, four parameters, variable slope).
Target-specific binding of hexavalent trimeric proteins to human 4-1BB-, OX40- or PD-L1-expressing cells was assessed by flow cytometry as described in Example 5, using CHO cells stably transfected with human 4-1BB, human OX40 or human PD-L1 (Flp-In system; Life Technologies).

The target of assay [2] is T2, cynomolgus 4-1BB on CHO cells (cynomolgus, UniProt A9YYE7 24-254).
T2 construct: also called Flp-In-CHO::cyno4-1BB; cynomolgus 4-1BB-expressing CHO cells
T2 sequence (A9YYE7 entry or part of it limits assumed): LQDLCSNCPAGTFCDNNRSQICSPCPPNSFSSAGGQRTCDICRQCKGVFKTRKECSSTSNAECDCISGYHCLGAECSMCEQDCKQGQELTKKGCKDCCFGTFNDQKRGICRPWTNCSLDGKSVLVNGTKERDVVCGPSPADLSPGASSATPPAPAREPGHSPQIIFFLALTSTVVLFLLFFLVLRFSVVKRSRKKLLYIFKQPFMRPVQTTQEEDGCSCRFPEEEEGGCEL
Put plainly: flow cytometry, Flp-In-CHO::cyno4-1BB cells. The procedure, abridged: (§2)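 Flp-In CHO cells stably expressing human or cynomolgus 4-1BB (mock-transfected control), 5×10⁴/well, incubated 1 h on ice with dilution series of test proteins. Binding detected with rabbit anti-NGAL or Alexa 488 anti-human IgG (30 min, ice); geometric mean fluorescence fitted by four-parameter nonlinear regression.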
A general note: Flow cytometry measures light scatter and fluorescence of single cells or particles in a stream.

The target of assay [3] is T3, recombinant hu4-1BB-His (human 4-1BB with a C-terminal polyhistidine tag, R&D Systems) (human, UniProt Q07011 24-186).
T3 construct: Bought; not shown: C-terminal polyhistidine tag
In words: ELISA, hu4-1BB-His coated, detection anti-NGAL-HRP. The procedure, abridged:
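Plates coated with hu4-1BB-His (1 μg/mL, overnight, 4° C) and blocked with 2% BSA; test proteins at 100 to 0.002 nM bound 1 h at room temperature. Detection by anti-NGAL-HRP with fluorogenic substrate; EC₅₀ from 1:1 sigmoidal fit, slope fixed to one.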
In general terms: ELISA stands for enzyme-linked immunosorbent assay.

Assay [4] deals with T1, human 4-1BB on cells. In words: cell-based or functional assay.
In assay [5] the target is T4, hu4-1BB-Fc (R&D Systems) (human, UniProt Q07011 24-186).
T4 construct: Bought; also called human 4-1BB; not shown: human IgG Fc of the bought fusion
In words: SPR (Biacore 8K), hu4-1BB-Fc captured by anti-human IgG Fc; apparent value, 1:1 fit. The procedure, abridged:
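hu4-1BB-Fc at 0.3 μg/mL captured for 180 s on amine-coupled anti-human IgG Fc (CM5 chip). Analyte contact 180 s, dissociation 1200 s or 3000 s, 30 μL/min, 25° C. Double-referenced sensorgrams fitted to a 1:1 binding model.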
In general terms: In SPR one partner is held on a chip, and binding of the other changes the refractive index at the surface.

For assay [6], the target named is T1, human 4-1BB on cells. Put plainly: flow cytometry, Flp-In-CHO::hu4-1BB cells. The gist of the method:
as §2

The target of assay [7] is T5, human GPC3 on HepG2 cells (human, UniProt P51654 25-554).
T5 construct: whole, on cells; Endogenous GPC3 of the tumor cell line; also called GPC3-positive tumor cell line HepG2; human GPC3-expressing HepG2 cells
T5 sequence (P51654 25-554 limits assumed): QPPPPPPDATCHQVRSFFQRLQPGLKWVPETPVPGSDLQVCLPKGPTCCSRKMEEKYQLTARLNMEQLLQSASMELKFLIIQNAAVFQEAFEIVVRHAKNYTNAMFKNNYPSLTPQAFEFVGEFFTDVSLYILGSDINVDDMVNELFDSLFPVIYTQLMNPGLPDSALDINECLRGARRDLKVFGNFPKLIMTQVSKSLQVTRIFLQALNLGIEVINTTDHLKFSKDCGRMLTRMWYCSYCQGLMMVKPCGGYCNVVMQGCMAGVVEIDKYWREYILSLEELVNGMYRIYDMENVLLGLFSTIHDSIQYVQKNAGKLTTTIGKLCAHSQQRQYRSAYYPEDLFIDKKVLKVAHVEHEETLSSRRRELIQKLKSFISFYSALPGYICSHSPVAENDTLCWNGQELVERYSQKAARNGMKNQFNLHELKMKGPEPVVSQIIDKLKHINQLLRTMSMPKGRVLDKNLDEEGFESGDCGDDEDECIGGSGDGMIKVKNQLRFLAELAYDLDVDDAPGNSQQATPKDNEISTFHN
Put plainly: flow cytometry, HepG2 cells. Here is the method: GPC3-positive tumor cell line HepG2 was cultured in Dulbecco's Modified Eagle's Medium ([…], Pan Biotech) supplemented with 10% Fetal Calf Serum (Sigma-Aldrich) and in cell culture flasks according to manufacturer's instruction (37° C., 5% CO₂ atmosphere).
as §1

For assay [8], the target named is T6, huGPC3-His (human GPC3 with C-terminal polyhistidine tag, R&D Systems) (human, UniProt P51654 25-559, limits assumed).
T6 construct: Bought; not shown: C-terminal polyhistidine tag
T6 sequence (P51654 25-559 limits assumed): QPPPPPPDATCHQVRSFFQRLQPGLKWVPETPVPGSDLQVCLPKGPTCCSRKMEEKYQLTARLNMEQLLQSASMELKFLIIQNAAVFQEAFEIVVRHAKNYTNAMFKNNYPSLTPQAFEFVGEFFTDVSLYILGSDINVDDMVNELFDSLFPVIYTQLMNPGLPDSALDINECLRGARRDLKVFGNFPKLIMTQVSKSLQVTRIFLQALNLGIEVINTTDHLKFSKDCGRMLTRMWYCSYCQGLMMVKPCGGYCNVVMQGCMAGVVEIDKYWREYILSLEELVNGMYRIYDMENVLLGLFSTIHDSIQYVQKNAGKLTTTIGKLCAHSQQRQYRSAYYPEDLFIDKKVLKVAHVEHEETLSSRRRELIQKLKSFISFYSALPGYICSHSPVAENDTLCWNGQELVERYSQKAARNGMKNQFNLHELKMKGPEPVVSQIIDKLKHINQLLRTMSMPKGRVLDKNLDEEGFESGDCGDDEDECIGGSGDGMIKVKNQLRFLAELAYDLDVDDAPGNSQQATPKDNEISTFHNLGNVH
Put plainly: dual-binding ELISA, huGPC3-His coated, detection with biotinylated hu4-1BB-His and Extravidin-HRP. As to the method: Recombinant huGPC3-His (human GPC3 with C-terminal polyhistidine tag, R&D Systems) at the concentration of 1 μg/mL in PBS was coated overnight on microtiter plates at 4° C. After washing with PBS-0.05% T (PBS supplemented with 0.05% (v/v) Tween 20), the plates were blocked with 2% BSA (w/v) in PBS-0.1% T (PBS supplemented with 0.1% (v/v) Tween 20) for 1 h at room temperature. After washing with 100 μL PBS-0.05% T five times, exemplary multimeric proteins (SEQ ID NOs: 54 and 55) at different concentrations, ranging from 100 to 0.002 nM, were added to the wells and incubated for 1 h at room temperature, followed by another wash step. Bound molecules under study were detected by incubation with 1 μg/mL recombinant hu4-1BB-His (biotinylated human 4-1BB with C-terminal polyhistidine tag, Sino Biological) in PBS-0.1% T-2% BSA for 1 h. This step was followed by a further wash step and incubation with 1:5000 diluted Extravidin-HRP in PBS-0.1% T-2% BSA. After an additional wash step, fluorogenic HRP substrate (QuantaBlu, Thermo) was added to each well and the fluorescence intensity was detected using a fluorescence microplate reader.

Assay [9] concerns the target T6, huGPC3-His (human GPC3 with C-terminal …). In words: ELISA, huGPC3-His coated, detection anti-NGAL-HRP. As to the method: Recombinant hu4-1BB-His (human 4-1BB with a C-terminal polyhistidine tag, R&D Systems) at the concentration of 1 μg/mL in PBS was coated overnight on microtiter plates at 4° C. After washing with PBS-0.05% T (PBS supplemented with 0.05% (v/v) Tween 20), the plates were blocked with 2% BSA (w/v) in PBS-0.1% T (PBS supplemented with 0.1% (v/v) Tween 20) for 1 h at room temperature. After washing with 100 μL PBS-0.05% T five times, exemplary multimeric proteins (SEQ ID NOs: 38-44 and 46-53) or 4-1BB-specific lipocalin mutein as included in the multimeric protein (SEQ ID NO: 64) at different concentrations, ranging from 100 to 0.002 nM, were added to the wells and incubated for 1 h at room temperature, followed by another wash step. Bound molecules under study were detected by incubation with 1:1000 diluted anti-NGAL-HRP in PBS-0.1% T-2% BSA. After an additional wash step, fluorogenic HRP substrate (QuantaBlu, Thermo) was added to each well and the fluorescence intensity was detected using a fluorescence microplate reader.
The same ELISA setup was also employed to determine the binding potency of exemplary bispecific multimeric proteins (SEQ ID NO: 54 and SEQ ID NO: 55) to GPC3, where huGPC3-His (human GPC3 with C-terminal polyhistidine tag, R&D Systems) was instead coated on a microtiter plate. The testing agents were similarly titrated and bound agents detected.

T1 sequence (Q07011 24-255): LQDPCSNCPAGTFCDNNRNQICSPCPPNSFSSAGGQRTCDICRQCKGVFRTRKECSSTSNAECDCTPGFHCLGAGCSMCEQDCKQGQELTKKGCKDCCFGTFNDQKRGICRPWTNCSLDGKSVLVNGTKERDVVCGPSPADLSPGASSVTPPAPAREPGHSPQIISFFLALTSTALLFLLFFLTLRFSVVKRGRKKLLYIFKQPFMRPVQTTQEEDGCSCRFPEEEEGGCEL

B1: multimeric protein SEQ ID NO: 52 (designed binder)
chain: QDSTSDLIPAPPLSKVPLQQNFQDNQFHGKWYVVGQAGNIRLREDKDPIKMMATIYELKEDKSYDVTMVKFDDKKCMYDIWTFVPGSQPGEFTLGKIKSFPGHTSSLVRVVSTNYNQHAMVFFKFVFQNREEFYITLYGRTKELTSELKENFIRFSKSLGLPENHIVFPVPIDQCIDGGGGGSGGGGSGGGGSQDSTSDLIPAPPLSKVPLQQNFQDNQFHGKWYVVGQAGNIRLREDKDPIKMMATIYELKEDKSYDVTMVKFDDKKCMYDIWTFVPGSQPGEFTLGKIKSFPGHTSSLVRVVSTNYNQHAMVFFKFVFQNREEFYITLYGRTKELTSELKENFIRFSKSLGLPENHIVFPVPIDQCIDGGGGGSGGGGSGGGGSGVRLWATRQAMLGQVHEVPEGWLIFVAEQEELYVRVQNGFRKVQLEARTPLGGSGGAPEQKLISEEDLGSHHHHHHHHHH
A word on the EC50 (read off the curve): it is the concentration at which the effect is half-maximal. A higher EC50 (read off the curve) goes with lower potency in that assay. Broadly, the EC50 is the concentration giving half of the maximal effect. A word on the koff: it is a measure of how fast the partners let go of each other. The term kon denotes the second-order rate constant of association. Regarding B1, the concentration for a half-maximal effect (EC50 (read off the curve)) in [1] is approximately 2 nM. The EC50 in [2] is 3.36 nM; in [3], 0.12 nM; in assay [6] it was 1.5 nM. Besides, the “EC50 [nM], 4-1BB bioassay (NFκB-luc2/4-1BB Jurkat luminescence), with HepG2 cells” value (shortened to “EC50 [nM], 4-1BB bioassay”) in [4] was found to be 1 nM. Moreover, in [5], the Kd came to 0.24 nM. Moreover, the koff in assay [5] was 2.19e-05 s⁻¹. For the same molecule, in assay [5], the kon stood at 90400 M⁻¹ s⁻¹.

B2: bispecific multimeric protein SEQ ID NO: 55 (designed binder)
chain: QDSTSDLIPAPPLSKVPLQQNFQDNQFQGKWYVVGRAGNVGLREDKDPPKMWATIYELKEDKSYDVTNVRFARKKCTYSIGTFVPGSQPGEFTLGQIKSEPGGTANLVRVVSTNYNQHAMVFFKEVYQNREIFFIILYGRTKELTSELKENFIRFSKSLGLPENHIVFPVPIDQCIDGGGGGSGGGGSGGGGSGVRLWATRQAMLGQVHEVPEGWLIFVAEQEELYVRVQNGFRKVQLEARTPLGGGGSGGGGSGGGGSQDSTSDLIPAPPLSKVPLQQNFQDNQFHGKWYVVGQAGNIRLREDKDPIKMMATIYELKEDKSYDVTMVKFDDKKCMYDIWTFVPGSQPGEFTLGKIKSFPGHTSSLVRVVSTNYNQHAMVFFKFVFQNREEFYITLYGRTKELTSELKENFIRFSKSLGLPENHIVFPVPIDQCIDGGGSGGAPEQKLISEEDLGSHHHHHHHHHH
As for B2, the half-maximal effective concentration (EC50) in assay [2] came to 6.62 nM; in [7], 2.98 nM; in assay [8] it was 1.3 nM; in assay [6], 4.08 nM; in [9] it was 0.1 nM. Moreover, the “EC50 [nM], 4-1BB bioassay” value in assay [4] amounted to 0.69 nM. Besides, the Kd in assay [5] stood at 0.71 nM. The koff in assay [5] is 5.99e-05 s⁻¹. Besides, the kon in [5] came out at 84000 M⁻¹ s⁻¹.

B3: bispecific multimeric protein SEQ ID NO: 54 (designed binder)
chain: QVQLVQSGAEVKKPGASVKVSCKASGYTFTDYEMHWVRQAPGQGLEWMGALDPKTGDTAYSQKFKGRVTLTADKSTSTAYMELSSLTSEDTAVYYCTRFYSYTYWGQGTLVTLVSSGGGGSGGGGSGGGGSGGGGSDVVMTQSPLSLPVTPGEPASISCRSSQSLVHSNRNTYLHWYLQKPGQSPQLLIYKVSNRFSGVPDRFSGSGSGTDFTLKISRVEAEDVGVYYCSQNTHVPPTFGQGTKLEIKGGGGSGGGGSGGGGSGVRLWATRQAMLGQVHEVPEGWLIFVAEQEELYVRVQNGFRKVQLEARTPLGGGGSGGGGSGGGGSQDSTSDLIPAPPLSKVPLQQNFQDNQFHGKWYVVGQAGNIRLREDKDPIKMMATIYELKEDKSYDVTMVKFDDKKCMYDIWTFVPGSQPGEFTLGKIKSFPGHTSSLVRVVSTNYNQHAMVFFKFVFQNREEFYITLYGRTKELTSELKENFIRFSKSLGLPENHIVFPVPIDQCIDGGGSGGAPEQKLISEEDLGSHHHHHHHHHH
With B3, the EC50 in assay [2] stood at 5.99 nM; in [7], 3.07 nM; in assay [8] it was 0.63 nM; in [6] it was 5.49 nM; in assay [9], 0.15 nM. For the same molecule, in assay [4], the “EC50 [nM], 4-1BB bioassay” value was found to be 0.38 nM. Further, the Kd in assay [5] came out at 0.26 nM. The koff in assay [5] came out at 1.99e-05 s⁻¹. The kon in assay [5] is 77900 M⁻¹ s⁻¹.
